The values that follow come from article PMC9061753, “Mre11-Rad50 oligomerization promotes DNA double-strand break repair” (Nature Communications, 2022).

In data set [1] the target is T1, Mre11-Rad50 (MRwt) (S. cerevisiae, UniProt P32829;P12753 1-692;1-1312). As to the kind of experiment: EMSA; ATPgS, 5 mM Mg2+, 30 mM NaCl; mean of the 2 visible of 3 replicates (4.948, 4.099); apparent; Oligo EMSA: 25 mM Tris acetate pH 7.5, 1 mM DTT, 0.25 mg/ml BSA, 5 mM Mg acetate, 1 mM ATPgS, 30 mM NaCl, 30 C 15 min, 100 nM bp DNA; plasmid EMSA: 80 mM KCl, plus 1 mM MnCl2, 30 C 1 h; mass photometry 25 mM KCl. As to conditions: protein: recombinant; tags: Mre11-6xHis; Rad50 untagged; chain copies: 2;2; label: 3'-32P on top strand; 1-nt 5' overhangs as printed.
T1 sequence (P32829 whole entry, chain 1 of 2): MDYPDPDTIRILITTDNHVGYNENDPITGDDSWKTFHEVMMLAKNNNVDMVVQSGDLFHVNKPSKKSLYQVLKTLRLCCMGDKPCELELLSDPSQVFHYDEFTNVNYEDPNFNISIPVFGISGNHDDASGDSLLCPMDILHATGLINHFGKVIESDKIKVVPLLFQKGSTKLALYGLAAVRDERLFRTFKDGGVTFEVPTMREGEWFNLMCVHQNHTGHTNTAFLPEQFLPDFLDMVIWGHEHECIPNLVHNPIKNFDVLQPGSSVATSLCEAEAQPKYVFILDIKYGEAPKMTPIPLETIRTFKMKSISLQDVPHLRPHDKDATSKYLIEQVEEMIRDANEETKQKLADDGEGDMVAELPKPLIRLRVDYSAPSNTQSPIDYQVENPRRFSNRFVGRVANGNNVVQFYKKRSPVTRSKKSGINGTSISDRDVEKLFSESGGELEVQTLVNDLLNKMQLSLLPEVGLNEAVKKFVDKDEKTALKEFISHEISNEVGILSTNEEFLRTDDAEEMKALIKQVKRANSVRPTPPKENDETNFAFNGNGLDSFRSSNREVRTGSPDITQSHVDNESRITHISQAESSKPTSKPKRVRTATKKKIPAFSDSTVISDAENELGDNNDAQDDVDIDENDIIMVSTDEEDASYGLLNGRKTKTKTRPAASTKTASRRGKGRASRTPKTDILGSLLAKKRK
T1 sequence (P12753 whole entry, chain 2 of 2): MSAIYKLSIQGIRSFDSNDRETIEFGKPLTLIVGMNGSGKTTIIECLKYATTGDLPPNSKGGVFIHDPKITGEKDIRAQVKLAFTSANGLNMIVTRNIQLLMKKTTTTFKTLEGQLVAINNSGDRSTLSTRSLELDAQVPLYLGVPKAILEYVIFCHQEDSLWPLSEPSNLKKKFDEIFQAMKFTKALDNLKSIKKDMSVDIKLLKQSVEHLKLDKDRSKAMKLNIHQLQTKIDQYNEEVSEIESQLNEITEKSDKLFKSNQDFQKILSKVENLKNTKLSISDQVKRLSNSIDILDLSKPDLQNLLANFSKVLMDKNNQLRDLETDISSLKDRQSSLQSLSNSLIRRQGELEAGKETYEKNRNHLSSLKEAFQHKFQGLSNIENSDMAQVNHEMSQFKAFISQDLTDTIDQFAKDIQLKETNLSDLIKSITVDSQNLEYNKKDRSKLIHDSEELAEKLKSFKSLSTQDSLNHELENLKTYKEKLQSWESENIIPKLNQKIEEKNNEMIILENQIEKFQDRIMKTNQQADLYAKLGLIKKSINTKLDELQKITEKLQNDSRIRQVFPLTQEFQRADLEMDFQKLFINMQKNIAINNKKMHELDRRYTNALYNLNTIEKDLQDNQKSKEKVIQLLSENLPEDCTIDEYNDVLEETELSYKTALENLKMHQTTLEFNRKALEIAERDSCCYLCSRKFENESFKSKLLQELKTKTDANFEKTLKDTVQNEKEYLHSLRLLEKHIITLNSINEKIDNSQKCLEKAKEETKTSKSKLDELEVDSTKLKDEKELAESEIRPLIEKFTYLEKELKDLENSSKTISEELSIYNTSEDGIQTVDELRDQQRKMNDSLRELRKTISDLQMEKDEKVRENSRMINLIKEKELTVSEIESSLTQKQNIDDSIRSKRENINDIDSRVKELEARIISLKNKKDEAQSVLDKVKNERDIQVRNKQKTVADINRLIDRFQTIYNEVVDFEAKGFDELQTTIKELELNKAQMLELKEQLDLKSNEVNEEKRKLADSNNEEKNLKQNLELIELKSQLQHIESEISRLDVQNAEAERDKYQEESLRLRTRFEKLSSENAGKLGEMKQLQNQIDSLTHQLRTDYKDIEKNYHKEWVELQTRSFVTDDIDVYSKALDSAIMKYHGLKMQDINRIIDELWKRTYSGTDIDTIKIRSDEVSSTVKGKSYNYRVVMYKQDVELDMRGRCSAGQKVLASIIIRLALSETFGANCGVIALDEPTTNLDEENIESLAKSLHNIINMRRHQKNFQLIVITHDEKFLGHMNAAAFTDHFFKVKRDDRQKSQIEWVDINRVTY

For data set [2], the target named is T1, Mre11-Rad50 (MRwt). As to the kind of experiment: EMSA; ATPgS, 5 mM Mg2+, 30 mM NaCl; mean of the 2 visible of 3 replicates (6.248, 7.406); apparent; Oligo EMSA: 25 mM Tris acetate pH 7.5, 1 mM DTT, 0.25 mg/ml BSA, 5 mM Mg acetate, 1 mM ATPgS, 30 mM NaCl, 30 C 15 min, 100 nM bp DNA; plasmid EMSA: 80 mM KCl, plus 1 mM MnCl2, 30 C 1 h; mass photometry 25 mM KCl. As to conditions: protein: recombinant; tags: Mre11-6xHis; Rad50 untagged; chain copies: 2;2; label: 3'-32P on BIO100C; blunt before 3' labeling. On the technique in general: A gel shift assay detects complexes by their altered migration in electrophoresis.

B1: 197 bp EMSA (197mer) (dsDNA)
DNA 1: GCTTCGTATGTTTCTCCTGCTTATCACCTTCTTGAAGGCTTCCCATTCATTCAGGAACCGCCTTCTGGTGATTTGCAAGAACGCGTACTTATTCGCCACCATGATTATGACCAGTGTTTCCAGTCCGTTCAGTTGTTGCAGTGGAATAGTCAGGTTAAATTTAATGTGACCGTTTATCGCAATCTGCCGACCACTCG
DNA 2: GCGAGTGGTCGGCAGATTGCGATAAACGGTCACATTAAATTTAACCTGACTATTCCACTGCAACAACTGAACGGACTGGAAACACTGGTCATAATCATGGTGGCGAATAAGTACGCGTTCTTGCAAATCACCAGAAGGCGGTTCCTGAATGAATGGGAAGCCTTCAAGAAGGTGATAAGCAGGAGAAACATACGAAG
On to B1, for which the Kd in data set [1] is around 4.52 nM.

B2: 100 bp EMSA (BIO100C/BIO100) (dsDNA)
DNA 1: GATGCAGGAGGCTGCTACGACCATGGCAGAAGATTATGAGGTGGAGTACGCGCCCGGGGAGCCCAAGGGCACGCCCTGGCACCCGCACCGCGGCACTTAC
DNA 2: GTAAGTGCCGCGGTGCGGGTGCCAGGGCGTGCCCTTGGGCTCCCCGGGCGCGTACTCCACCTCATAATCTTCTGCCATGGTCGTAGCAGCCTCCTGCATC
modifications: biotin position marked in table
Turning to B2, in data set [2], the Kd is around 6.83 nM.
